# Assay results taken from the DeepSol protein solubility set.
# Experiment: soluble on expression in E. coli; label from the status in PepcDB or PDB records
row,Sequence,soluble on expression in E. coli
1,MSLVYLNSNFLYGDDFEPKKGTLVIEDEIIKGFTSEHHSNVLNYKGLVIPPLINSHTHIGDNSIKDIGIGKSLDELVKPPNGLKHKFLNTCSEKELVQGMSEGLYDLENNGIKAFCDFRENGLNGINSLKSAFEDSNVSIKPIILGRPTQREENLLKDEISIILDNCDGLGLSGSNEYSDQELKFICKLVNKKILSIHANEHKGSVQYSKEKYGISEIERLINLNIKPDFLIHATHSSSDDLSLLNENKIPVVVCPRANASFNVGLPDIPKMLEYNLKLGIGTDNFMANSPSIFKEMDFIYKIYHVDPKEILKMATINGAEILGLQNTGVIKEGYIPTFTFIKNGNILKTSKNIAASVVTRLENGDVDSKFLVCEGHHHHHH,not soluble
2,KFDESALVPEDQFLAQHPGPATIRVSKPNENDGQFMEITVQSLSENVGSLKEKIAGEIQIPANKQKLSGKAGFLKDNMSLAHYNVGAGEILTLSLRER,soluble
3,MEKNLYDTNKLIELYKNKESMSGYTTILNVIEFPKALEFNLTVLYLSKSDYRLAIKISTELLKIGEPVPAVYTLISAIANKQRFKGCNAGQTFYAS,not soluble
4,MVKEFNTQTELSVRLEALWAVLSKDFITVVPKVLPHIVKDVQLIEGDGGVGTILIFNFLPEVSPSYQREEITEFDESSHEIGLQVIEGGYLSQGLSYYKTTFKLSEIEEDKTLVNVKISYDHDSDIEEKVTPTKTSQSTLMYLRRLERYLSNGSA,soluble
5,MTRLTLALDVMGGDFGPSVTVPAALQALNANSQLTLLLVGNPDIITPLLAKADFEQRSRLQIIPAQSVIASDARPSQAIRASRGTSMRVALELVKEGRAEACVSAGNTGALMGLAKLLLKPLEGIERPALVTVLPHQQKGKTVVLDLGANVDCDSTMLVQFAVMGAVLAEEVVGIKNPRVALLNIGEEETKGLDSIREASLMLKTVPTINYIGYLEANELLTGKTDVLVCDGFTGNVTLKTMEGVVRMFLSLLKSQGEGKKRSWWLLLLKRWLQKSLTRRFSHLNPDQYNGACLLGLRGTVIKSHGAANQRAFAVAIEQAVQAVQRQVPQRIAARLESVYPAGFEPLDDGKGVNLRAHR,not soluble
6,GHMIMANWQSIDELQDIASDLPRFIHALDELSRRLGLNITPLTADHISLRCHQNATAERWRRGFEQCGELLSENMINGRPICLFKLHEPVQVAHWQFSIVELPWPGEKRYPHEGWEHIEIVLPGDPETLNARALALLSDEGLSLPGISVKTSSPKGEHERLPNPTLAVTDGKTTIKFHPWSIEEIVASEQSA,soluble
7,MAVKDNYCVIMGGGIGSRFWPFSRESHPKQFLDFFGTGRSLLQMTYDRFARFIPRENILVVTNELYVDKVREQLPEIEPDQILREPTRRNTAPCIAYASYHIYARNPKANIIVAPSDHLILREDEFVRAASEALEFVADHEHLVTLGIRPSRPETGYGYIQMAEEKTGDFIRVKTFTEKPNAEMASIFLASGEFLWNSGMFVWNVESILAAFRKHLPEVTSSLENGLAHFNTPEERRFIDQAFPYCPSISIDFGVMEKADNVLVMPVDFGWADLGTWGSLYELAQKDDAGNASLKTRTLFYEAERNIVTTDNPQKLVVVQGINDCIVAESGNVLLICRAEEEQRIKHFVADAALKYDKEYN,soluble
8,GPGSMFLSLANKLVVSRQRGSSCERMAQPKERASISSEELVVWKAAERVRKGASLPLSRVARCIASATKLLKVETKVVERVCGDTIVFGPIRGHAADFANILLTKVLPNRCVRNIVFLGNYIDGAHQSLGVLFLIAALIVCSRFHIVPLIGKHEMMYPILSETFGSLRNEMLLCCTRRRQPLEQYESIMKEFFSVLPIACVVENKFFCVAGGPSSKFRTLKEIELITMTQEASNEFVLNEPMDEDEERIADRSAFVASQGTELAFRYTFNAACNFLSRNKLAMLIVGMEYHMSLPDYDSFARPNHYKESIYFPGYMLGRIHPESQLPAVLSIFSAPSFCGVNRNNACIAEIAGNRLVVQELGVYAKRPLVTPGTQDHAFSWAQPMLERAVVAIARDIIRGVIKEDAATDDDAHRKRLEEVAVSKMRRMCMLLRTHNIPFPDVPKLTFR,not soluble
9,MSEKPIDKVFNRILVGVDDSADAQLAFRYAVRRAVKDNATLIITSILENDEMNVYQALTKDYVHGERYELVEHLKKYRDIAAKAGVKDIKEIVDEGNAGETIVKNVIPAVKADLLIIGSLSKKGISKYFGSQAAYMAKYAPISVLIIR,not soluble
